Assay results from the RNAGym collection of RNA variant scans (doi:10.7554/elife.80360).

B1: Hairpin Ribozyme (parent)
chain: GUCCUCUUUCACGUGCGCGUGAAAGAGAGAAGUGAACCAGAGAAACACACGUUGUGGUAUAUUACCUGGUA

Variants of: B1
Experiment: self-cleavage, relative activity (ratio to wild type); higher = more cleavage; co-transcriptional

Row | Variant | self-cleavage
1 | U9A A47G | 0.0847
2 | U9A A47U | 0.135
3 | U9C G51C | 0.761
4 | U9C G51A | 0.775
5 | U9A G42U | 0.253
6 | U9A C50A | 0.264
7 | U9A C50G | 0.214
8 | U9G A71U | 0.601
9 | U9G A71C | 1.2
10 | U9G A71G | 0.779
11 | U9C C65U | 0.258
12 | U9A C38U | 0.388
13 | U9A C66U | 0.266
14 | U9G A41U | 1.15
15 | U9A A23U | 0.472
16 | C10A U58C | 0.858
17 | C10G C48A | 0.151
18 | U9G U20G | 0.333
19 | U9A C46U | 0.134
20 | U9A C46G | 0.135
21 | U9G A35G | 0.546
22 | C10U A49G | 0.422
23 | C10U A49C | 0.143
24 | U8G U33G | 0.111

Row | Variant | self-cleavage
25 | U9G A39C | 0.356
26 | U9G G42U | 0.364
27 | U9C G17U | 0.709
28 | C10A U20G | 0.663
29 | U9C A47G | 0.123
30 | C10A A23C | 0.657
31 | U9C U67G | 0.283
32 | U9C U67C | 0.203
33 | U9G A49U | 0.163
34 | U9G A49C | 0.182
35 | U9C U62G | 0.199
36 | U9C A71U | 0.68
37 | C10A A45G | 0.138
38 | U9A A26U | 0.424
39 | U9A A26C | 0.364
40 | U9C A61U | 0.0555
41 | C10A G21U | 0.939
42 | U9G U14G | 0.597
43 | U9C G13U | 0.469
44 | C10U A28U | 0.357
45 | U9G U33A | 0.102
46 | U9G U33C | 0.176
47 | C10G A23U | 0.656
48 | C10G U70G | 0.611

Row | Variant | self-cleavage
49 | U9C C10U | 0.527
50 | U9C C10A | 0.696
51 | C10A A22C | 0.636
52 | U9C G21A | 0.5
53 | U9C G21C | 0.479
54 | C10G G34U | 1.06
55 | U9G G69C | 0.299
56 | U9C U55G | 0.266
57 | C10G G13A | 0.568
58 | U8G U63C | 0.155
59 | U8G U63G | 0.172
60 | U8G U70G | 0.608
61 | U8G U70C | 0.675
62 | U9C U63A | 0.131
63 | C10A G27A | 0.35
64 | C10A G27U | 0.233
65 | C10G U60A | 0.608
66 | C10G G21U | 0.872
67 | C10G G21A | 0.704
68 | C10G G21C | 0.93
69 | U9C A64C | 0.201
70 | U9C A64U | 0.0987
71 | U9C A64G | 0.381
72 | C10A C16U | 0.762

Row | Variant | self-cleavage
73 | C10G A24C | 0.641
74 | U9G C18A | 0.707
75 | U9C A36G | 0.882
76 | C10A A26U | 0.461
77 | C10A A26C | 0.297
78 | C10A A28C | 0.251
79 | C10G G51U | 0.699
80 | C10G G51A | 0.755
81 | U9C C12U | 0.665
82 | C10A A64U | 0.121
83 | U9G A11U | 0.566
84 | U9G G19C | 0.56
85 | U9G C66A | 0.279
86 | U9A C48A | 0.144
87 | U8G G56U | 0.169
88 | C10A A35U | 0.56
89 | C10A A35G | 0.63
90 | C10A C38G | 0.196
91 | C10A C38A | 0.171
92 | U9C G27C | 0.109
93 | C10A G17A | 0.622
94 | U9G G56U | 0.124
95 | U9G C65G | 0.207
96 | U9G A44U | 0.162

Row | Variant | self-cleavage
97 | U9G C10A | 0.735
98 | U9G C10U | 0.743
99 | U9A A41G | 0.675
100 | U9A G19A | 0.588
101 | U8G U55G | 0.223
102 | U9G G68C | 0.136
103 | U9C A22G | 1.04
104 | U9C A22C | 0.799
105 | C10G U58C | 0.681
106 | U9A C37U | 0.317
107 | U9A C37G | 0.189
108 | U9A C37A | 0.193
109 | U9G G40C | 0.104
110 | C10G C50A | 0.198
111 | C10A U55A | 0.23
112 | U9C A30C | 0.0706
113 | U9C G68U | 0.217
114 | C10A A39G | 0.224
115 | C10A A39U | 0.262
116 | C10G A71C | 1.2
117 | C10G A30C | 0.168
118 | C10G A30G | 0.143
119 | C10G A30U | 0.0991
120 | U8G U58C | 0.725

Row | Variant | self-cleavage
121 | U9A G51U | 0.675
122 | C10U A64C | 0.213
123 | U9A A35G | 0.744
124 | U9A A35U | 0.578
125 | U9A G21C | 0.465
126 | C10A C50A | 0.255
127 | C10A C50G | 0.352
128 | C10U A31G | 0.812
129 | C10U A31U | 0.103
130 | U9A U70G | 0.532
131 | C10G A59U | 0.16
132 | C10A U33C | 0.174
133 | U9A G25A | 0.191
134 | U9A G25C | 0.232
135 | C10A G15U | 0.871
136 | U8G G69U | 0.29
137 | U9A C18U | 0.775
138 | C10G A61C | 0.255
139 | C10G A61U | 0.2
140 | C10U A71G | 0.811
141 | U9A G54C | 0.3
142 | U9G G15C | 0.893
143 | U9G G15U | 0.894
144 | U8G G42C | 0.284

Row | Variant | self-cleavage
145 | U8G G42U | 0.254
146 | C10A A49C | 0.223
147 | U9G G54A | 0.418
148 | U9G U67C | 0.188
149 | U8G G51U | 0.886
150 | U9G G17A | 0.571
151 | U9G G17U | 0.847
152 | C10G U62C | 0.261
153 | C10G U62A | 0.0993
154 | C10G G54C | 0.193
155 | U9C A59C | 0.142
156 | U9C A59U | 0.146
157 | C10A A61U | 0.194
158 | C10A A61C | 0.18
159 | U9C C46A | 0.122
160 | U9G G32U | 0.123
161 | U9G A47G | 0.231
162 | U9C A24U | 0.677
163 | C10A G13U | 0.425
164 | C10A A47U | 0.177
165 | C10G C16U | 0.735
166 | C10G C16A | 0.555
167 | U9A U55G | 0.279
